This note sets out measurements from paper PMC3240954 (Scientific Reports, 2011).

Data set [1] concerns the target WhiA (S. coelicolor), full-length, untagged (S. coelicolor, UniProt Q9Z515 1-328). Kind of data set: pull-down.
For the next data set, the target named is H6-WhiA full-length (Streptomyces coelicolor, UniProt Q9Z515 1-328). The experiment in a line: competition.
Chain of H6-WhiA full-length (Q9Z515 whole entry): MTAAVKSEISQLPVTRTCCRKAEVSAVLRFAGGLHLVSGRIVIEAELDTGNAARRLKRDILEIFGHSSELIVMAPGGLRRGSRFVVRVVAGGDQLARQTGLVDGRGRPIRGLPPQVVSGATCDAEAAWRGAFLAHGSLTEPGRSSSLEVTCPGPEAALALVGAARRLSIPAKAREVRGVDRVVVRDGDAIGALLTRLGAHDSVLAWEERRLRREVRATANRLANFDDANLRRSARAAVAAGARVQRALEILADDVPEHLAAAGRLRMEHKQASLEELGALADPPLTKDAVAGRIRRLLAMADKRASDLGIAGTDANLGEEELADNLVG

Chain of WhiA (S. coelicolor), full-length, untagged (Q9Z515 whole entry): as above

B1: His-tagged WhiG (H6-WhiG) (natural protein, UniProt P17211 1-280, looked up)
chain: MPQHTSGSDRAAIPPAARDGGSVRPPAPSTLDELWRSYKTTGDERLREQLILHYSPLVKYVAGRVSVGLPPNVEQADFVSSGVFGLIDAIEKFDVDREIKFETYAITRIRGAMIDELRALDWIPRSVRQKARNVERAYATLEARLRRTPSESEVAVEMGIAVEDLHAVFSQLSLANVVALEELLHAGGEGGGRLSLMDTLEDTAADNPVEVAEDRELRRLLARAINTLPEREKTVVTLYYYEGLTLAEIGNVLGVTESRVSQIHTKSVLQLRAKLAGFGR
For B1, in data set [1], the binding result is “binds”.

B2: -22/A (dsDNA)
DNA 1: CGTCATTTGGAGGTTTTGGGACAACACGCCCCTAAACTCGCCCT
DNA 2: AGGGCGAGTTTAGGGGCGTGTTGTCCCAAAACCTCCAAATGACG
In the case of B2, the binding result with H6-WhiA full-length is recorded as “binds”.
